In the supplement of paper PMC7125110:
± gives the standard error. For part of these data: Fewer inactive variants are shown than the library holds.

B1: glmS ribozyme (parent)
chain: AUAAAAGCGCCAGAACUACAGAAAUGUAGUUGACGAGGAGGAGGUUUAUCGAAUUUUCGGCGGAUGCCUCCAAA

Key:
Details in all cases: with glucosamine-6-phosphate
glucosamine-6-phosphate [1] = variants of: B1; assay: kcat; higher = faster cleavage; RNA array
Procedure, shortened: (§1)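 A hybridised Cy3 probe tracked barcoded ribozyme variants, transcribed in situ by E. coli RNA polymerase on sequenced MiSeq chips, at 37 °C. The variants received 40 μM to 10 mM glucosamine-6-phosphate in HEPES/KCl/Mg(OAc)2 buffer. kobs came from decay fits and kcat and KM from weighted Michaelis–Menten fits.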

glucosamine-6-phosphate [2] = variants of: B1; assay: KM; higher = weaker cofactor use; RNA array
Procedure, shortened: as §1

glucosamine-6-phosphate [3] = variants of: B1; assay: self-cleavage kobs at 2500 uM GlcN6P; higher = faster cleavage; RNA array
Procedure, shortened: as §1

glucosamine-6-phosphate [4] = variants of: B1; assay: self-cleavage kobs at 10000 uM GlcN6P; higher = faster cleavage; RNA array
Procedure, shortened: as §1

glucosamine-6-phosphate [5] = variants of: B1; assay: self-cleavage kobs at 40 uM GlcN6P; higher = faster cleavage; RNA array
Procedure, shortened: as §1

glucosamine-6-phosphate [6] = variants of: B1; assay: self-cleavage kobs at 640 uM GlcN6P; higher = faster cleavage; RNA array
Procedure, shortened: as §1

glucosamine-6-phosphate [7] = variants of: B1; assay: self-cleavage kobs at 160 uM GlcN6P; higher = faster cleavage; RNA array
Procedure, shortened: as §1

Row | Variant | kcat (glucosamine-6-phosphate [1]) [s⁻¹] | KM (glucosamine-6-phosphate [2]) [µM] | self-cleavage kobs at 2500 uM GlcN6P (glucosamine-6-phosphate [3]) [s⁻¹] | self-cleavage kobs at 10000 uM GlcN6P (glucosamine-6-phosphate [4]) [s⁻¹] | self-cleavage kobs at 40 uM GlcN6P (glucosamine-6-phosphate [5]) [s⁻¹] | self-cleavage kobs at 640 uM GlcN6P (glucosamine-6-phosphate [6]) [s⁻¹] | self-cleavage kobs at 160 uM GlcN6P (glucosamine-6-phosphate [7]) [s⁻¹]
1 | C16U G32C | 0.000168 ± 3e-05 | 3960 ± 1900 | 7.33e-05 ± 1.4e-05 | 0.000119 ± 1.2e-05 | – | – | –
2 | C16U A36C | < 1e-05 | 28.4 ± 13 | < 1e-05 | – | < 1e-05 | < 1e-05 | –
3 | C16A A39C | 0.000305 ± 1.9e-05 | 4340 ± 490 | 0.000114 ± 1.5e-05 | 0.00021 ± 2.9e-05 | – | 3.69e-05 ± 1.3e-05 | –
4 | C16A A39G | 0.00326 ± 0.00026 | 2130 ± 240 | 0.00177 ± 0.00034 | 0.00273 ± 0.00053 | 6.75e-05 ± 1.4e-05 | 0.000731 ± 0.00012 | 0.000212 ± 5.3e-05
5 | C16A A39U | 0.00123 ± 0.00017 | 2410 ± 520 | 0.000654 ± 5.7e-05 | 0.000937 ± 9e-05 | – | 0.000287 ± 2.3e-05 | 6.24e-05 ± 9.4e-06
6 | C16G G37A | 0.000832 ± 0.00041 | – | 0.000292 ± 6.6e-05 | 0.000396 ± 4.9e-05 | – | 3.76e-05 ± 1.2e-05 | –
7 | C16G C50U | < 1e-05 | – | – | – | – | – | < 1e-05
8 | C16G A39U | 0.00424 ± 0.00089 | 3090 ± 880 | 0.00198 ± 0.00025 | 0.00316 ± 0.00031 | 6.4e-05 ± 7.3e-06 | 0.000895 ± 0.00011 | 0.000164 ± 2.2e-05
9 | C16U A64C | 0.000145 ± 2.5e-05 | 2130 ± 970 | 9.71e-05 ± 1.7e-05 | 0.000113 ± 1.6e-05 | – | 2.44e-05 ± 1.1e-05 | –
10 | A15U U30A | 0.0245 ± 0.006 | 377 ± 130 | – | 0.0272 ± 0.0062 | 0.00246 ± 0.0004 | 0.0102 ± 0.0044 | –
11 | C16A U31G C70U | 0.00025 ± 1.3e-05 | 351 ± 54 | 0.000242 ± 6.1e-05 | 0.000235 ± 4.9e-05 | – | 0.000157 ± 3e-05 | 7.99e-05 ± 2.2e-05
12 | C16U G66U | 0.00129 ± 0.00016 | 1550 ± 340 | 0.000956 ± 0.00011 | 0.00105 ± 0.00011 | 3.86e-05 ± 7.8e-06 | 0.000375 ± 4.5e-05 | 9.95e-05 ± 2e-05
13 | C16A U45A | 0.00475 ± 0.0015 | 3620 ± 1600 | 0.00222 ± 0.00037 | 0.00331 ± 0.00052 | 7.33e-05 ± 1.3e-05 | 0.000781 ± 0.00013 | 0.000133 ± 3.5e-05
14 | A15U U49G C50G G63A | 2.96e-05 ± 6.8e-06 | – | – | – | < 1e-05 | – | –
